According to paper PMC4579573, “Higher -Order Assembly of BRCC36–KIAA0157 Is Required for DUB Activity and Biological Function” (Molecular cell, 2015):

How the values were obtained:
[1] = target: the molecule itself; assay: SEC-MALS; complexes and subcomplexes purified from insect cells; size exclusion chromatography coupled to multi-angle light scattering (Figures S1B-E and S8E-G)
[2] = target: the molecule itself; assay: crystal structure; CfBRCC36–KIAA0157ΔC, seleno-methionine-SAD, two heterodimers in the asymmetric unit, 2.55 Å

| Protein | stoichiometry N [1] | binding result [2] |
| --- | --- | --- |
| zebrafish BRISC complex (complex) chain 1: MAVNAVHLESDAFLVCMNHALSTEKEEVMGLCIGEVDTNRIVHIHSVIILRRSDKRKDRVEISPEQLSAASTEAERLAEMTGRPMRVVGWYHSHPHITVWPSHVDVRTQAMYQMMDQGFVGLIFSCFIEDKNTKTGRVLYTCFQSVQAQKGSEYERIEIPIHVVPHEAIGKVCLESAVELPRILCQEEQDTYRRIHSLTHLDPITKIHNGSVFTKNLCSQMSAISGPLLQWLEDRLEQNKQSIITLQKEKELLTQELAAL chain 2: not shown chain 3: MNSLSPELALSRISPELRPLLCSIVRNGRVGLDSSSCLRITDLKSGCTSLMPGPCCDRFKLHIPYAGETLKWDIIFNARDPELPPDFIFGEDADFLPEPSELPNLVSWDSGKPECLLLLVKEMLQQYHQYQCQRLRDSSRLLFEYDSLLEDPNYGRNMEIYAGRKNSWTGEFSARFLLKLPVDFSNIPIYLLKDTALDPGEDVALLSVSFEDAEATQVFPKLYLSPSIEHALGGSSALHIPAFPSGGCLIDYVPQVCQLLTNKVQYVIQGYHKRREYIAAFLSHFGMGVVEYDAVGFTKLTLLLMWKDFCFLVHVDLPLYFPRDQPTLTFQSIYHFTSSGQLYSQVQKSYPYSPRWDGNEMAKRAKAYFKSFIPQFQEGAFANGKL chain 4: METTEPGQADGEERMMDLRPRTRSNPEGAEDRRSSTGSLNSSLPSAPQPAVGSRVEGEGEAASSDSPPVSATAIAATASVPVAAVGNTTTTNTASLPAMSPAVKERPKPSQPTMPTQIPPSAELHLRAPRVNCPEKVIICLDLSEEMSLQKLESINGSKTNALNISQKMIEMFVRTKHKIDKRHEFALVVVNDDAMWLSGFTSDPRELCSCLYDLETNVCESFNLEDLFNVILQKIELPQMENIQTIPPPFVVRTLLVFSRHAGMLQFNPSDAVKKMLQSPYFFFDVVFLHNGTEEQTEDTSWKDVYASFCELDTKGMCYRFEVSLCGPAIELHNCMAKLLCHPLQRPFQSHASYSLLEDEDTLENEATV | 2 |  |
| Dr BRCC36–KIAA0157 binary complex (complex) chain 1: MAVNAVHLESDAFLVCMNHALSTEKEEVMGLCIGEVDTNRIVHIHSVIILRRSDKRKDRVEISPEQLSAASTEAERLAEMTGRPMRVVGWYHSHPHITVWPSHVDVRTQAMYQMMDQGFVGLIFSCFIEDKNTKTGRVLYTCFQSVQAQKGSEYERIEIPIHVVPHEAIGKVCLESAVELPRILCQEEQDTYRRIHSLTHLDPITKIHNGSVFTKNLCSQMSAISGPLLQWLEDRLEQNKQSIITLQKEKELLTQELAAL chain 2: not shown | 2 |  |
| C. floridanus BRISC complex (complex) chain 1: MDDSSLQKVELQTDVYMVCLQHALSTENFEVMGLLIGNFACGIAKISAVIILRRLDKKKDRVEISSEQLLKAAAEAERLTVELNRPMRVLGWYHSHPHITVCPSHVDVRTQATYQTMDHSFVGLIFSVFSEGKESKEHEIFLNCFQSDNGEATEIPLEIVHTPDISDRCLRTMTDLSKILVQEEEDMAEACKDHPDVLASIHNNAVRTRALIHITDIITKPLVQTFEKRIALNKLRATHLQRQLQELQKMCNG chain 2: MADSDLLVTISGAALSLLFFENVRSVGNQMGFLLGEALEFIVKTYTDSDNQVETVKIHINVEAIVTCPLADLLHDSTNHINKEKLKDFVRDKSKQVIGWFCFRRNTTNLTLTLKDKLLHKQFASHFSGVNGCKEDFFLTCLLNASTSETSGTHKFRHVFLRHNKRGMFEPISLKINNLGDDASRHDGSDYKPTPVRKSTRTPDSFTKLIESLNLDVARIDGLDSAMLIQKAAEHHLMSLIPKVCESDLEVAELEKQVHELKIKIATQQLAKRLKINGENCDRISKASKDNCFSEKIDSSKKNEVRIGDDACLQREHIPSCTQSVGPNNRTVCRNTAACIAKSAEKSRRAGRSNLQESGNQQQETQNFFTNSRRSIPEIATESICQEGSEISMGRGRGSGRGSHEFTPGMKKIRRTPGTSHMHSSRERSTTPPEQDFSDAECPISSPVLRSYSQVTKKTNLDKCNSMAPLDI chain 3: MLNQQHPLLSTIDSYIEPLLKRVLQTKRLGVCCGLIKLDSVSSSCNKSKNDCFKLSIPYAGEHLVWSVLFDSQYPEMGPDFIFNDQSFLADPDINTLSTWIPSLTKWNPNDIDALLNVLSELLLYYKEHQLHLLGKQGDRLQFEYSTLVGETEISREDIEVIMLPLGTKPTEARFLIRIVMDYSRLPPRINKSQNDEAMLIIMFYGPDWNRIIPQLYLSKTLEDIFGGPESLHIPPFPSSKYLMDYVPEVKKFIDEKIHNVVQSFESRKSFITVLIVSQRGSILEYDAIEFNWISMLLEHRDFHFLIHFHLPSTFPKEKPQITLQSVYHMTSQGTLYKEVLDDTPYSPRWQIILMVDKLLTYIMENAVQKFQANSMKNRF | 2 |  |
| CfBRCC36 (enzyme, C. floridanus, UniProt E2AXC7 1-253, looked up, BRCC36 of Camponotus floridanus, residues 1-253; The crystal of PDB 5CW4 held seleno-methionine protein; also called C. floridanus BRCC36; B36; source: insect cells (MultiBac expression system), co-expressed with its partners, purified) MDDSSLQKVELQTDVYMVCLQHALSTENFEVMGLLIGNFACGIAKISAVIILRRLDKKKDRVEISSEQLLKAAAEAERLTVELNRPMRVLGWYHSHPHITVCPSHVDVRTQATYQTMDHSFVGLIFSVFSEGKESKEHEIFLNCFQSDNGEATEIPLEIVHTPDISDRCLRTMTDLSKILVQEEEDMAEACKDHPDVLASIHNNAVRTRALIHITDIITKPLVQTFEKRIALNKLRATHLQRQLQELQKMCNG |  | binds |
